Laboratory results from patent EP4813403A1, “USE OF GLP-1R/GIPR DOUBLE-TARGET AGONIST IN PREPARING ANIMAL DRUG” (Hangzhou Zhongmeihuadong Pharmaceutical Co., Ltd., priority 2023, dated 2025).

T1: human GIP receptor (human) (UniProt P48546)
T1 sequence (looked up): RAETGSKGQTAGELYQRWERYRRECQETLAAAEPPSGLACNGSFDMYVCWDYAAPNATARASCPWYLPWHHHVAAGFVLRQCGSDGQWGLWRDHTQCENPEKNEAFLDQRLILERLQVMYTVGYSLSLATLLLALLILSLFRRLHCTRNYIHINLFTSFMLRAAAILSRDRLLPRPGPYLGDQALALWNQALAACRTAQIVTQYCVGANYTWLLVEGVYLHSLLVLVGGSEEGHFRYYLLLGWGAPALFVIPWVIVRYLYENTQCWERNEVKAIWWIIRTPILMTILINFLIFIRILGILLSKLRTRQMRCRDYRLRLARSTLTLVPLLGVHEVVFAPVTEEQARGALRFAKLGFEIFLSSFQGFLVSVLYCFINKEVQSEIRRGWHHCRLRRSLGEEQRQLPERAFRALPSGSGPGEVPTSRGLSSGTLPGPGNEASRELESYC

B1: P007 (peptide)
peptide: YXEGTXTSDYXIXLDKQAQAEFVKWLLKGGPSSGAPPPSK
modifications: Aib at 2; αMePhe at 6; Aib at 11; Aib at 13; K at position 24 ε-amino conjugated with ([2-(2-amino-ethoxy)-ethoxy]-acetyl)2-(γ-Glu)1-CO-(CH2)16-CO2H; C-terminal primary amide

Columns and labels:
[1] = target: T1, human GIP receptor (human); assay: cell-based or functional assay
[2] = target: human GLP-1 receptor (human) (UniProt P43220); assay: cell-based or functional assay
human GLP-1 receptor (human), sequence (P43220 24-463): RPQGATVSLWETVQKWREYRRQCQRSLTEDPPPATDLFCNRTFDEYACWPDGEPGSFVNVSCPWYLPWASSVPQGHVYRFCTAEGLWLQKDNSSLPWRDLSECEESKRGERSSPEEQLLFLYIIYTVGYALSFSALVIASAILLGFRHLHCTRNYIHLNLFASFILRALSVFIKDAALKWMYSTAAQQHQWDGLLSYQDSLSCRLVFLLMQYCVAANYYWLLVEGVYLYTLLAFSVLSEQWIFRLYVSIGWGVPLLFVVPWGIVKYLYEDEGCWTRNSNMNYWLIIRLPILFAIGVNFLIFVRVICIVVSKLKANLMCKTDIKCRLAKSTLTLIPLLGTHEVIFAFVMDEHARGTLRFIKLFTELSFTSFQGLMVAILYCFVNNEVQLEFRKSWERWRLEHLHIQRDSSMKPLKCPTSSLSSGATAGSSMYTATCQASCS

[3] = target: human GLP-1 receptor (human) (UniProt P43220); assay: radioligand competition ([125I]GLP-1 displaced), membranes of cells over-expressing human GLP-1R; Ki by Cheng-Prusoff
[4] = target: T1, human GIP receptor (human); assay: radioligand competition ([125I]GIP displaced), membranes of cells over-expressing human GIPR; Ki by Cheng-Prusoff

Row | Binder | EC50 value (ratio: EC50 of endogenous ligand / EC50 of test compound), LANCE Ultra cAMP assay, HEK293/GIPR cells [1] | EC50 value (ratio: EC50 of endogenous ligand / EC50 of test compound), cAMP reporter gene (luciferase) assay, HEK293/CRE/GLP-1R cells [2] | Ki ratio (Ki of endogenous ligand / Ki of test compound) [3] | Ki ratio (Ki of endogenous ligand / Ki of test compound) [4]
1 | YXEGTXTSDYXIXLDKQAQAEFVKWLLKGGPSSGAPPPSK (X1 is Aib; X2 is αMePhe; X3 is Aib; X4 is Aib; C-terminal primary amide) [P001] | 7.13 | 52.1 | 19.5 | 8.82
2 | B1 | – | 5.84 | 0.47 | –
